The record followed here is PMC2686266.

For this assay, the target named is the mutant kinases (GST-fused NIK1 kinase domains with single and double amino acid replacements in the A-loop, except T474D).

B1: His-tagged nuclear shuttle protein (NSP) of Cabbage leaf curl virus (CaLCuV), Q96706 1-256 (natural protein)
chain: MYPTKFRRGVSYSQRRFVSRNQSSKRGTFVRRTDGKRRKGPSSKAHDEPKMKLQRIHENQYGPEFVMTHNSALSTFINFPVLGKIEPNRSRSYIKLNRLSFKGTVKIERVHADVNMDGVISKIEGVFSLVIVVDRKPHLSSTGGLHTFDEIFGARIHSHGNLAITPGLKDRYYVLHVLKRVLSVEKDTLMVDLEGSTTISNRRYNCWASFNDLEHDLCNGVYANISKNAILVYYCWMSDAMSKASTFVSYDLDYLG
Regarding B1, the further reduction of the residual autophosphorylation activity of the mutant kinases in vitro in the presence of GST-NSP was 50 to 70%.
